Assay results reported in patent US20120301468A1 (Bayer, published 2012).

B1: 3bb2 Fab (Fab, V domains shown)
VH: ELVESGGGLVQPGGSLRLSCAASGFTFSNYGISWVRQAPGKGLEWVSAISYYGSNTYYADSVKGRFTISRDNSKNTLYLQMNSLRAEDTAVYYCARLKGGSGFVWGQGTLVTVSS
VL: DIVMTQSPLSLPVTPGEPASISCRSSQSLVYSNGNTTLSWYLQKPGQSPQLLIYGVSNRASGVPDRFSGSGSGTDFTLKISRVEAEDVGVYYCQQYNSFPRTFGQGTKVEIK
notes: Only CDRs are tied to the name
B2: 3ab4 Fab (Fab, V domains shown)
VH: ELVESGGGLVQPGGSLRLSCAASGFTFSSYGISWVRQAPGKGLEWVSGISYSGSSTYYADSVKGRFTISRDNSKNTLYLQMNSLRAEDTAVYYCARLKPYRHKNGWFDYWGQGTLVTVSS
VL: DIQMTQSPSSLSASVGDRVTITCRASQNISNYLNWYQQKPGKAPKLLIHKVSNLQSGVPSRFSGSGSGTDFTLTISSLQPEDFAVYYCLQYDDFPRTFGQGTKVEIK
notes: as for B1
B3: 3ef2 Fab (Fab, V domains shown)
VH: ELVESGGGLVQPGGSLRLSCAASGFTFSSYGMHWVRQAPGKGLEYVSAISYSSSSTSYADSVKGRFTISRDNSKNTLYLQMNSLRAEDTAVYYCARLSYTGFAVWGQGTLVTVSS
VL: DIELTQPPSVSVAPGQTARISCSGDNLGSYYVHWYQQKPGQAPVLVIYDDNNRPSGIPERFSGSNSGNTATLTISGTQAEDEADYYCQSYDFGKVVFGGGTKLTVL
notes: as for B1
B4: 1e4 Fab (Fab, V domains shown)
VH: ELVESGGGLVQPGGSLRLSCAASGFTFSNNAMNWVRQAPGKGLEWVSGISYDSSKTYYADSVKGRFTISRDNSKNTLYLQMNSLRAEDTAVYYCARLTYTGAYRWGQGTLVTVSS
VL: B3 VL
notes: as for B1
B5: 3ef2 full-length human IgG1 (antibody, V domains shown)
VH: QVELVESGGGLVQPGGSLRLSCAASGFTFSSYGMHWVRQAPGKGLEYVSAISYSSSSTSYADSVKGRFTISRDNSKNTLYLQMNSLRAEDTAVYYCARLSYTGFAVWGQGTLVTVSS
VL: B3 VL
notes: Full-length human IgG1 made from the Fab; Only CDRs are tied to the name
B6: 1e4 full-length human IgG1 (antibody, V domains shown)
VH: B4 VH
VL: B3 VL
notes: Full-length human IgG1 made from the Fab (IgG1 constant region PIR J00228); Only CDRs are tied to the name; also called monoclonal IgG1 1e4; anti-MN antibody 1e4
B7: 3ee9 Fab (Fab, V domains shown)
VH: ELVESGGGLVQPGGSLRLSCAASGFTFSSYGMSWVRQAPGKGLEWVSGISSLGSTTYYADSVKGRFTISRDNSKNTLYLQMNSLRAEDTAVYYCARTGSPGTFMHGDHWGQGTLVTVSS
VL: DIQMTQSPSSLSASVGDRVTITCRASQDINNYLSWYQQKPGKAPKLLIYGASNLQSGVPSRFSGSGSGTDFTLTISSLQPEDFAVYYCQQYYGRPTTFGQGTKVEIK
notes: only the CDRs are tied
B8: 3ee9/MMAE (3ee9 human IgG1 conjugated to monomethylauristatin E) (antibody, V domains shown)
VH: QVELVESGGGLVQPGGSLRLSCAASGFTFSSYGMSWVRQAPGKGLEWVSGISSLGSTTYYADSVKGRFTISRDNSKNTLYLQMNSLRAEDTAVYYCARTGSPGTFMHGDHWGQGTLVTVSS
VL: DIQMTQSPSSLSASVGDRVTITCRASQDINNYLSWYQQKPGKAPKLLIYGASNLQSGVPSRFSGSGSGTDFTLTISSLQPEDFAVYYCQQYYGRPTTFGQGTKVEIKR
modifications: Monomethylauristatin E (MMAE) is conjugated to the antibody through a linker (FIG. 9). The chain and residues of attachment are not stated, and the letters do not carry the drug.
notes: Only CDRs are tied to the name; also called BAY 79-4620; 3ee9-IC
B9: 3ee9 full-length human IgG1 (antibody, V domains shown)
VH: B8 VH
VL: B8 VL
notes: Only CDRs are tied to the name; also called unconjugated antibody 3ee9; antibody portion of 3ee9/MMAE
B10: 5a6 Fab (Fab, V domains shown)
VH: ELVQSGAEVKKPGESLKISCKGSGYSFSKYWIGWVRQMPGKGLEWMGIIYPTDSYTRYSPSFQGQVTISADKSISTAYLQWSSLKASDTAMYYCARTHGYYKNGRMDVWGQGTLVTVSS
VL: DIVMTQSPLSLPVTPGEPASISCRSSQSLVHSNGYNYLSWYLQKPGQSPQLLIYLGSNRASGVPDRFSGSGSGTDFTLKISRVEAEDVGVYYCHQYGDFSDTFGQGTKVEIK
notes: as for B1
B11: 1aa1 Fab (Fab, V domains shown)
VH: ELVQSGAEVKKPGASVKVSCKASGYTFTTNYMHWVRQAPGQGLEWMGIINPHNGSTSYAQKFQGRVTMTRDTSISTAYMELSSLRSEDTAVYYCARGRYFLMDVWGQGTLVTVSS
VL: DIQMTQSPSSLSASVGDRVTITCRASQNILSYLNWYQQKPGKAPKLLIYAASSLQSGVPSRFSGSGSGTDFTLTISSLQPEDFAVYYCQQYGSVPTFGQGTKVEIK
notes: as for B1
B12: 1aa1 full-length human IgG1 (antibody, V domains shown)
VH: QVELVQSGAEVKKPGASVKVSCKASGYTFTTNYMHWVRQAPGQGLEWMGIINPHNGSTSYAQKFQGRVTMTRDTSISTAYMELSSLRSEDTAVYYCARGRYFLMDVWGQGTLVTVSS
VL: B11 VL
notes: as for B5
B13: 1aa1 immunoconjugate (antibody, human IgG1, V domains shown)
VH: B12 VH
VL: B11 VL
modifications: A cytotoxic drug (MMAE by paragraph 261) is conjugated to the IgG1. The chain and residues of attachment are not stated, and the letters do not carry the drug.
notes: Human IgG1 1aa1 conjugated to a cytotoxic drug; Only CDRs are tied to the name
B14: 3ah10 Fab (Fab, V domains shown)
VH: ELVESGGGLVQPGGSLRLSCAASGFTFSSYGISWVRQAPGKGLEWVSSISYSGSNTYYADSVKGRFTISRDNSKNTLYLQMNSLRAEDTAVYYCARMKPMRGYSGAVWGQGTLVTVSS
VL: DIQMTQSPSSLSASVGDRVTITCRASQDISNRLAWYQQKPGKAPKLLIYDANSLQSGVPSRFSGSGSGTDFTLTISSLQPEDFATYYCFQYSGPTFGQGTKVEIK
notes: as for B1
B15: 5aa3 full-length human IgG1 (antibody, V domains shown)
VH: QVELVQSGAEVKKPGESLKISCKGSGYSFTGYISWVRQAPGKGLEWMGIIYPGDSYTNYSPSFQGQVTISADKSISTAYLQWSSLKASDTAMYYCARYSGPNWDVMDSWGQGTLVTVSS
VL: DIVLTQPPSVSGAPGQRVTISCSGSSSNIGSYYVNWYQQLPGTAPKLLIYADDKRPSGVPDRFSGSKSGTSASLAITGLQSEDEADYYCQSYDSTKDDSVFGGGTKLTVL
notes: as for B5

Key:
[1] = molecular target: T1, human MN protein, entire extra-cellular domain with a C-terminal histag, expressed in HKB-11 cells (human, UniProt Q16790 38-414); assay: BIAcore surface plasmon resonance; Fab captured on immobilized anti-human-Fab IgG, purified human MN (HKB-11) as analyte; 1:1 Langmuir fit
[2] = molecular target: T1, human MN protein, entire extra-cellular …; assay: SPR, BIAcore 3000, IgG captured by anti-human IgG Fc, MN as analyte, 1:1 Langmuir fit
[3] = molecular target: T1, human MN protein, entire extra-cellular …; assay: BIAcore surface plasmon resonance; IgG captured on immobilized goat anti-human IgG Fc, purified human MN (HKB-11) as analyte; 1:1 Langmuir fit
[4] = molecular target: T2, MN protein on the surface of MN-expressing (MN+) cells (PC3 mm2, MaTu) (human, UniProt Q16790 38-459); assay: cell-based or functional assay
[5] = molecular target: T1, human MN protein, entire extra-cellular …; assay: Biacore (SPR), purified MN protein
[6] = molecular target: T1, human MN protein, entire extra-cellular …; assay: Biacore (SPR), purified MN protein; remark: listed apart in the source
[7] = molecular target: T2, MN protein on the surface of …; assay: FACS on PC3mm2 (MN+) cells with DLD (MN-) cells as negative cells; traces not labelled on the sheet

| Binder | Kd [1] | Kd [2] | also measured |
| --- | --- | --- | --- |
| B1 | 27 nM |  |  |
| B2 | 50 nM |  |  |
| B3 | 4.1 nM |  |  |
| B4 | 1.4 nM |  |  |
| B5 |  | 6 nM |  |
| B6 |  | 5 nM | Kd [3]: 1 nM |
| B7 | 16 nM |  |  |
| B8 |  |  | Cytotoxicity: MN+/MN- (ec50) [4]: 50 nM; Kd [5]: 3.6 nM |
| B9 |  | 4 nM | Kd [6]: 3.6 nM; Kd [3]: 5.9 nM |
| B10 | 3.4 nM |  |  |
| B11 | 0.15 nM |  |  |
| B12 |  | 27 nM | Kd [3]: 49 nM |
| B13 |  |  | binding result [7]: binds |
| B14 | 16 nM |  |  |
| B15 |  | 1 nM |  |
